These results are taken from the PETadex activity labels (doi:10.1021/acscatal.2c02275).

Substrate in the data set: gfPET
The data set can be described thus: Proxy for plastic degradation [Relative activity]. The following applies: pH 8.

B1: unnamed (protein)
chain: MANPYERGPDPTESSIEAVRGPFAVAQTTVSRLQADGFGGGTIYYPTDTSQGTFGAVAISPGFTAGQESIAWLGPRIASQGFVVITIDTITRLDQPDSRGRQLQAALDHLRTNSVVRNRIDPNRMAVMGHSMGGGGALSAAANNTSLEAAIPLQGWHTRKNWSSVRTPTLVVGAQLDTIAPVSSHSEAFYNSLPSDLDKAYMELRGASHMVSNTPDTTTAKYSIAWLKRFVDDDLRYEQFLCPAPDDFAISEYRSTCPF
B1: the “Proxy for plastic degradation” value turned out to be 74%.

B2: unnamed (protein)
chain: MANPYERGPDPTESSIEAVRGPFAVAQTTVSRLQADGFGGGTIYYPTDTSQGTFGAVAISPGFTAGQESIAWLGPRIASQGFVVITIDTITRLDQPDSRGRQLQAALDHLRTNSVVRNRIDPNRMAVMGHSMGGGGALSAAANNTSLEAAIPLQGWHTRKNWSSVRTPTLVVGAQLDTIAPVSSHSEAFYNSLPSDLDKAYMELRGASHHVSNTPDTTTAKYSIAWLKRFVDDDLRYEQFLCPAPDDFAISEYRSTCPF
On to B2, for which the “Proxy for plastic degradation” value came to 54%.

B3: unnamed (protein)
chain: MANPYERGPDPTESSIEAVRGPFAVAQTTVSRLQADGFGGGTIYYPTDTSQGTFGAVAISPGYTAGQESIAWLGPRIASQGFVVITIDTITRLDQPDSRGRQLQAALDHLRTNSVVRNRIDPNRMAVMGHSMGGGGALSAAANNTSLEAAIPLQGWHTRKNWSSVRTPTLVVGAQLDTIAPVSSHSEAFYNSLPSDLDKAYMELRGASHLVSNTPDTTTAKYSIAWLKRFVDDDLRYEQFLCPAPDDFAISEYRSTCPF
For the protein B3, the “Proxy for plastic degradation” value came out at 65%.

B4: unnamed (protein)
chain: MANPYERGPDPTESSIEAVRGPFAVAQTTVSRLQADGFGGGTIYYPTDTSQGTFGAVAISPGFTAGQESIAWLGPRIASQGFVVITIDTITRLDQPDSRGRQLQAALDHLRTNSVVRNRIDPNRMAVMGHSMGGGGALSAAANNTSLEAAIPLQGWHTRKNWSSVRTPTLVVGAQLDTYAPVSSHSEAFYNSLPSDLDKAYMELRGASHLVSNTPDTTTAKYSIAWLKRFVDDDLRYEQFLCPAPDDFAISEYRSTCPF
With B4, the “Proxy for plastic degradation” value stood at 26%.

B5: unnamed (protein)
chain: MANPYERGPDPTESSIEAVRGPFAVAQTTVSRLQADGFGGGTIYYPTDTSQGTFGAVAISPGFTAGQESIAWLGPRIASQGFVVITIDTITRLDQPDSRGRQLQAALDHLRTNSVVRNRIDPNRMAVMGHSMGGGGALSAAANNTSLEAAIPLQGFHTRKNWSSVRTPTLVVGAQLDTIAPVSSHSEAFYNSLPSDLDKAYMELRGASHLVSNTPDTTTAKYSIAWLKRFVDDDLRYEQFLCPAPDDFAISEYRSTCPF
For the protein B5, the “Proxy for plastic degradation” value stood at 8%.

B6: unnamed (protein)
chain: MANPYERGPDPTESSIEAVRGPFAVAQTTVSRLQADGFGGGTIYYPTDTSQGTFGAVAISPGFTAGQESIAWLGPRIASQGFVVITIDTITRLDQPDSRGRQLQAALDHLRTNSVVRNRIDPNRMAVMGHSMGGGGALSAAANNTSLEAAIPLQGWHTRKNWSSVRTPTLVVGAQLDTIAPVSSHSEAFYNSLPSDLDKAYMELRGASHDVSNTPDTTTAKYSIAWLKRFVDDDLRYEQFLCPAPDDFAISEYRSTCPF
With B6, the “Proxy for plastic degradation” value worked out at 66%.

B7: unnamed (protein)
chain: MANPYERGPDPTESSIEAVRGPFAVAQTTVSRLQADGFGGGTIYYPTDTSQGTFGAVAISPGFTAGQESIAWLGPRIASQGFVVITIDTITRLDQPDSRGRQLQAALDHLRTNSVVRNRIDPNRMAVMGHSMGGGGALSAAANNTSLEAAIPLQGWHTRKNWSSVRTPTLVVGAQLDTIAPVSSHSEAFYNSLPSDLDKAYMELRGASHPVSNTPDTTTAKYSIAWLKRFVDDDLRYEQFLCPAPDDFAISEYRSTCPF
As for B7, the “Proxy for plastic degradation” value worked out at 16%.

B8: unnamed (protein)
chain: MANPYERGPDPTESSIEAVRGPFAVAQTTVSRLQADGFGGGTIYYPTDTSQGTFGAVAISPGFTAGQESIAWLGPRIASQGFVVITIDTITRLDQPDSRGRQLQAALDHLRTNSVVRNRIDPNRMAVMGHSMGGGGALSAAANNTSLEAAIPLQGHHTRKNWSSVRTPTLVVGAQLDTIAPVSSHSEAFYNSLPSDLDKAYMELRGASHLVSNTPDTTTAKYSIAWLKRFVDDDLRYEQFLCPAPDDFAISEYRSTCPF
Take B8: the “Proxy for plastic degradation” value is 1%.

B9: unnamed (protein)
chain: MANPYERGPDPTESSIEAVRGPFAVAQTTVSRLQADGFGGGTIYYPTDTSQGTFGAVAISPGFTAGQESIAWLGPRIASQGFVVITIDTITRLDQPDSRGRQLQAALDHLRTNSVVRNRIDPNRMAVMGHSMGGGGALSAAANNTSLEAAIPLQGAHTRKNWSSVRTPTLVVGAQLDTIAPVSSHSEAFYNSLPSDLDKAYMELRGASHLVSNTPDTTTAKYSIAWLKRFVDDDLRYEQFLCPAPDDFAISEYRSTCPF
Regarding B9, the “Proxy for plastic degradation” value was 5%.
